# Laboratory results from PMC5510004, “Recruitment and positioning determine the specific role of the XPF‐ERCC1 endonuclease in interstrand crosslink repair”.
# Where a chain is given by its changes, count along the chain named.
# T1: XPF G314E;ERCC1 wild type (hsERCC1) (Xenopus laevis;Homo sapiens?, UniProt A0A8J0PXV9;P07992 1-897;1-297, G314E|)
# T1 sequence 1: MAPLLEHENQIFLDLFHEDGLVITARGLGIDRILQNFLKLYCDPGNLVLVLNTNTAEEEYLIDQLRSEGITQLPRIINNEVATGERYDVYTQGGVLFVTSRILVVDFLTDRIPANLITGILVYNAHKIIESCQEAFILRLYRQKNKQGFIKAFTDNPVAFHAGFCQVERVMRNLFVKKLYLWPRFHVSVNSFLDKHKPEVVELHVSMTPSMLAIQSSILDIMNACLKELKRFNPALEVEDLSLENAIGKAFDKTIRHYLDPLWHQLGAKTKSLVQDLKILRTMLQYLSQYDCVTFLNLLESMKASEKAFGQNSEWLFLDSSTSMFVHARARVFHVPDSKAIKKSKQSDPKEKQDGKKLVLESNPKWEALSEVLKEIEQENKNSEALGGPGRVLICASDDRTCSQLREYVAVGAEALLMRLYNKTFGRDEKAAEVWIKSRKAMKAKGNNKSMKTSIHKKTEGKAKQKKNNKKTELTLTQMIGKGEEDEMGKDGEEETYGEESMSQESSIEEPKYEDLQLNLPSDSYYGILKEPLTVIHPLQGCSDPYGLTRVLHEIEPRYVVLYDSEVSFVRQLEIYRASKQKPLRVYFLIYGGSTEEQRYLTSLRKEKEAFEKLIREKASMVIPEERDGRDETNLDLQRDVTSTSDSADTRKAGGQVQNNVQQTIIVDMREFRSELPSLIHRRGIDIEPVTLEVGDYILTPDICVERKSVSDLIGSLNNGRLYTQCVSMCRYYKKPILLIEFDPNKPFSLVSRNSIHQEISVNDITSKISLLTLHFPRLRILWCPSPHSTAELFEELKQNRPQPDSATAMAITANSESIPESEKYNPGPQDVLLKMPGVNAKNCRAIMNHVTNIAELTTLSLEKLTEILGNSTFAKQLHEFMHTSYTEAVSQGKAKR
# T1 sequence 2: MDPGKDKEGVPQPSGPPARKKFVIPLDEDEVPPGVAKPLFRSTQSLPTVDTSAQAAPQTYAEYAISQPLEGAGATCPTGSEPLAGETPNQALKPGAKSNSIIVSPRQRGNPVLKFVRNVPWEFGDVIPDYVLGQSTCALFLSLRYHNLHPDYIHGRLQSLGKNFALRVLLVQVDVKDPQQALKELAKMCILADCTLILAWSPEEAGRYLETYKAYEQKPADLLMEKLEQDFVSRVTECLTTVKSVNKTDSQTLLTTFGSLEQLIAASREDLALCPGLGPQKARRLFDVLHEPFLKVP
# T2: XPF C225R;ERCC1 wild type (hsERCC1) (Xenopus laevis;Homo sapiens?, UniProt A0A8J0PXV9;P07992 1-897;1-297, C225R|)
# T2 sequence 1: T1 sequence 1 with C225R, E314G
# T2 sequence 2: T1 sequence 2
# B1: 3' flap DNA substrate (F1+F2+F3) (dsDNA)
# DNA 1: CGCGATGCGGATCCAA
# DNA 2: CCTAGACTTAAGAGGCCAGACTTGGATCCGCATCGC
# DNA 3: GGCCTCTTAAGTCTAGG
# Tests used:
# [1] = target: T1, XPF G314E;ERCC1 wild type (hsERCC1); assay: fluorescence anisotropy; 2 mM Ca2+; comparable to wild type; 25 mM Hepes pH 8.0, 15% glycerol, 0.1 mg/ml BSA, 2 mM CaCl2, 10 nM DNA, 1 h at room temperature; conditions: protein: recombinant;recombinant; tags: FLAG;His; copies: 1;1; label: 5'-FAM on F1; three strands 1:1:1
# [2] = target: T2, XPF C225R;ERCC1 wild type (hsERCC1); assay: as above; conditions: protein: recombinant;recombinant; tags: FLAG;His; copies: 1;1; label: 5'-FAM on F1; three strands 1:1:1
binder,measurement,setting,value
B1,binding result,[1],binds
same,binding result,[2],binds
